Experimental data taken from patent US20240294624A1, “ANTI-ERYTHROPOIETIN ANTIBODY” (ANDREMACON S.R.L., priority 2021, published 2024).

Key:
K562 = assay: Caspase Glo 3/7 assay; format: cell-based, human
Description: (§1) Furthermore, cellular models were treated the above-mentioned pharmacological drugs and apoptotic effect was evaluated by caspase activity.
(§2) Data are expressed as the mean±standard deviation of at least 3 experiments in triplicate. *P<0.05 versus CTR for all treatments tested.

A2780 = assay: Caspase Glo 3/7 assay; format: cell-based, human
Description: as §1, §2

SHSY-5Y = assay: Caspase Glo 3/7 assay; format: cell-based, human
Description: as §1, §2

MCF-7 [1] = assay: Caspase Glo 3/7 assay; format: cell-based, human
Description: as §1, §2

GSCs = assay: Caspase Glo 3/7 assay; format: cell-based, human
Description: as §1, §2

LNCAP = assay: Caspase Glo 3/7 assay; format: cell-based, human
Description: as §1, §2

A549 [2] = assay: Caspase Glo 3/7 assay; format: cell-based, human
Description: as §1, §2

DLD1 = assay: Caspase Glo 3/7 assay; format: cell-based, human
Description: as §1, §2

GBM-CSCs = assay: Caspase Glo 3/7 assay; format: cell-based, human
Description: as §1, §2

GECs = assay: Caspase Glo 3/7 assay; format: cell-based, human
Description: as §1, §2

PC-3 = assay: Caspase Glo 3/7 assay; format: cell-based, human
Description: as §1, §2

[3] = system: anaplastic astrocytoma cancer stem cells; assay: Caspase Glo 3/7 assay; format: cell-based, human
Description: as §1, §2

[4] = Hematological toxicity, blood count; format: in vivo; conditions: mice; IV 10 mg/Kg; 18 days
Description: Blood samples (100 μL) were collected into K3EDTA coated tubes, which were placed on a rotary mixer for at least 30 min, then analyzed for hematological analysis.
FIGS. 27 and 28 refer to blood count of mice treated intravenously (IV) for 18 days (T18) with anti-EPO at 10 mg/Kg. (A) RBC: red blood cells; (B) HGB: hemoglobin; (C) HCT: hematocrit; (D) MCV: mean corpuscular volume; (E) MCH: mean corpuscular hemoglobin; (F) MCHC: mean corpuscular hemoglobin concentration; (G) RDW: red cell distribution width; (H) RET: reticulocyte Count; (I) PLT: platelets. Data are means±SD (FIG. 27) and A) WBC: white blood cells; (B) NEUT: neutrophils; (C) LYMP: lymphocytes; (D) MONO: monocytes; (E) EOS: eosinophils; (F) BASO: basophils. Data are means±SD (FIG. 28).

[5] = system: human tumor GSC-derived xenograft; assay: Gene expression of GSC-derived xenograft after in vivo treatment; design: species or system mice; conditions: xenograft GSCs; RealTime PCR
Description: The analysis was performed by the assessment of gene expression profile on human tumor GSC-derived xenograft. Gene expression analysis were conducted by Real-Time PCR, run in triplicate, using 18S as endogenous control. Samples have been normalized to untreated CTRL. The analysis was conducted on genes related to FIG. 30A apoptosis, FIG. 30B inflammation, FIG. 30C proliferation.
Tissues were processed and total RNA was extracted following TRI-Reagent protocol and quantified with NanoDrop 1000 Spectro-photometer (Thermo Fisher Scientific). Reverse transcriptase reaction was executed using TranScriba Kit (A&A Biotechnology), loading 1 μg of RNA (A260/A280>1.8), according to manufacturer's instructions. qRT-PCR was performed using StepOnePlus™ (Thermo Fisher Scientific), 1 μg of cDNA, forward and reverse human primers (250 nM each) Titan HotTaq EvaGreen® qPCR Mix (Bioatlas). Data were normalized to 18S expression, used as endogenous control. Relative gene expression was determined using the 2-ΔΔCt method (FIG. 30).

MCF-7 [6] = assay: MTT cell viability assay; format: cell-based, human; conditions: 96 hours, 6 μg/ml
Description: G. Breast cancer cell line (MCF-7); breast cancer cells.

[7] = system: primary anaplastic astrocytoma cells; assay: MTT cell viability assay; format: cell-based, human; conditions: 96 hours, anti-EPO (C4) 6 μg/ml, TMZ 100 μM, FTY720 100 nM
Description: D. Primary anaplastic astrocytoma cancer stem cells isolated from tumor biopsy of a cohort of patients affected by high grade glioma, in particular, anaplastic astrocytoma (WHO, grade III);

human healthy astrocytes = assay: MTT cell viability assay; format: cell-based; conditions: 96 hours
Description: L. Human healthy Astrocytes is a commercial cell line of human healthy astrocytes

A549 [8] = assay: MTT cell viability assay; format: cell-based, human; conditions: 96 hours, 6 μg/ml
Description: J. Lung carcinoma cell line (A549): human lung cancer cells used for drug efficacy screening, biochemical mechanisms and alveolar differentiation;

primary GSCs = assay: MTT cell viability assay; format: cell-based, human; conditions: 96 hours, anti-EPO (C4) 6 μg/ml, TMZ 100 μM, FTY720 100 nM
Description: A. Primary glioblastoma cancer stem cells (GCSc).

murine EPO (mEPO) = target: T1, murine EPO (mEPO) (Mus musculus, UniProt P07321); assay: SPR binding kinetics; conditions: m-EPO
T1 sequence (P07321 27-192): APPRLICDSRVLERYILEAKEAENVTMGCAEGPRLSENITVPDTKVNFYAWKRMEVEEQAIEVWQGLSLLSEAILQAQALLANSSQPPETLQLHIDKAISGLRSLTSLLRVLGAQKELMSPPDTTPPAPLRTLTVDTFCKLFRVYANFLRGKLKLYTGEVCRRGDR
Description: FIG. 26A SPR technology can allow to determine the plasma and tissue concentrations of antibody, on the basis of an appropriate calibration curve. FIG. 26B Blood samples were collected from the retroorbital plexus under isoflurane anesthesia at 4, 24, 48, 72, 120, and 168 h from treatment.
SPR is a technology widely used to study in real time the interaction between two unlabeled molecules, one (the “ligand”) immobilized on a sensor chip, and the other (the “analyte”) flowing through a microfluidic system over the chip surface. Binding is measured in real time as a change in the refractive index on the surface. The most common application of SPR is to determine the association/dissociation binding constants for biomolecular interactions, but its versatility allows many other uses, including label-free immunoassays and concentration determination of biologics.
The study was carried out using an up-to-date SPR apparatus, the ProteOn XPR36 Protein Interaction Array system (Bio-Rad Laboratories). This system is mainly characterized by the presence of six flow channels which can uniformly immobilize up to six ligands on parallel strips of the same sensor surface.
In addition, SPR analysis was performed for anti-EPO (C4) to evaluate the binding kinetics parameters.

U373 cells = assay: MTT viability of chemo-resistant cells; format: cell-based; conditions: 96 h

B1: anti-EPO (C4): isolated anti-Erythropoietin monoclonal antibody, VL SEQ ID NO:6, VH SEQ ID NO:14, hybridoma DSM ACC 3370 (antibody, listed as Homo sapiens, V domains shown)
VH: EVKLQESGGGLVQPGGSLKLSCAASGFTFSTYTMSWVRQTPEKRLEWVAYISNGGDRTYYPDTVKGRFTISRDDAKNTLFLQMSSLKSEDTAMYYCARHNITTVPFTMDYWGQGTSVTVSS
VL: DIVLTQSPASLAVSLGQRATISCRASESVDYYGTGLMQWYQQRPGQPPKLLIYGASNVGSGVPARFSGSGSGTDFSLNIHPVEGDDIAMYFCQQTRKVPSTFGGGTKLEIK
modifications: VH amino acid sequence; VL amino acid sequence
With B1 the “increment of apoptosis (caspase 3/7 activation)” value (from here on “increment of apoptosis”) (K562) was 180%, the “increment of apoptosis” value (A2780) was 234% and the “increment of apoptosis” value (SHSY-5Y) was 200%. For the same molecule, the “increment of apoptosis” value (MCF-7 [1]) was 218%, the “increment of apoptosis” value (GSCs) was 200% and the “increment of apoptosis” value (LNCAP) was 220%. For the same molecule, the “increment of apoptosis” value (A549 [2]) was 200%, the “increment of apoptosis” value (DLD1) was 217% and the “increment of apoptosis” value (GBM-CSCs) was 210%. For the same molecule, the “increment of apoptosis” value (GECs) was 220%, the “increment of apoptosis” value (PC-3) was 243% and the “increment of apoptosis” value [3] was 205%. For the same molecule, the “blood count (hematological parameters)” value [4] was “no significant variations in all hematological parameters analyzed”, the “gene expression on tumoral cells after in vivo treatment” value [5] was “induced inhibition cancer stem cell proliferation, increase apoptosis and inflammation” and the “cells initially plated dead” value (MCF-7 [6]) was 71%. The “cells initially seeded dead” value [7] was roughly 66%, the “effect on human healthy astrocyte viability” value (human healthy astrocytes) was “did not affected human healthy astrocyte viability” and the “cells initially plated dead” value (A549 [8]) was 63%. For the same molecule, the “cells initially seeded dead” value (primary GSCs) was “about 73%”, the kd (murine EPO (mEPO)) was 0.000669 s⁻¹ and the Kd (murine EPO (mEPO); rounded) was 1000 nM. It also gave a percent survival (U373 cells) of 30%.
